Reference: patent US20050209137A1 (published 2005)

T1: long form of human leptin receptor, stably transfected in BAF/3 cells (cell homogenate) (human, UniProt P48357 22-1165)
T1 construct: whole, on cells; also called WT in BAF/3 cell homogenate; full-size membrane-embedded leptin receptor
T1 sequence (looked up): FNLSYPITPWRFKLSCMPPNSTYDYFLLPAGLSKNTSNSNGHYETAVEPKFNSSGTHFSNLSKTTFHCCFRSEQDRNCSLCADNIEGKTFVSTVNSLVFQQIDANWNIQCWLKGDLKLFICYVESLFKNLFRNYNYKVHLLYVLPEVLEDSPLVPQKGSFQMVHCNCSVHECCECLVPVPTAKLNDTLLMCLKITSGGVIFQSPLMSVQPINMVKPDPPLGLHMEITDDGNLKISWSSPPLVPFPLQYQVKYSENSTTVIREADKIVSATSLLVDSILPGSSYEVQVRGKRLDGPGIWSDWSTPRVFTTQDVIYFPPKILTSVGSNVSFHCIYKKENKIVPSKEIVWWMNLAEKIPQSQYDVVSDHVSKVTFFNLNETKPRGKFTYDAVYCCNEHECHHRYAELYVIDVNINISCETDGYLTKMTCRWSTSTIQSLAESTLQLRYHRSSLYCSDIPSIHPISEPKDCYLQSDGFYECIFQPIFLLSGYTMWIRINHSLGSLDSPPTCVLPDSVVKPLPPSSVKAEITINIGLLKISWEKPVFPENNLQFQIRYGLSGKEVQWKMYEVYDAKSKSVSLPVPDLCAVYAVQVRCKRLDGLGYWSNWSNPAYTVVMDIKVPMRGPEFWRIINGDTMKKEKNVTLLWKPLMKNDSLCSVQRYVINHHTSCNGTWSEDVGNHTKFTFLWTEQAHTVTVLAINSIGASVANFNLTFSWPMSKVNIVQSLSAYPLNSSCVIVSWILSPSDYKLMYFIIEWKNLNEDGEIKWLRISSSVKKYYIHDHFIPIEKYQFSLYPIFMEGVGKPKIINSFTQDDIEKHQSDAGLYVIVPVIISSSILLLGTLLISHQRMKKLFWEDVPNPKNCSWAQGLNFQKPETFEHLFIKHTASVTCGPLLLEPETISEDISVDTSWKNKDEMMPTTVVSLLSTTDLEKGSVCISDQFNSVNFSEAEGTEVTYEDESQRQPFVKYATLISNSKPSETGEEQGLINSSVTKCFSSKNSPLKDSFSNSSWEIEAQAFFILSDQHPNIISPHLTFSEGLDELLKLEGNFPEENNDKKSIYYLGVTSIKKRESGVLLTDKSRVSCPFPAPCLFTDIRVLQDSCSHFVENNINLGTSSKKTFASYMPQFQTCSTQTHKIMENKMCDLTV

B1: ovine leptin (fraction SP) (ligand, UniProt Q28603 1-146, looked up)
chain: VPIRKVQDDTKTLIKTIVTRINDISHTQSVSSKQRVTGLDFIPGLHPLLSLSKMDQTLAIYQQILASLPSRNVIQISNDLENLRDLLHLLAASKSCPLPQVRALESLESLGVVLEASLYSTEVVALSRLQGSLQDMLRQLDLSPGC
B2: recombinant chicken leptin receptor binding domain (chLBD), amino acids 419-624 of the chicken leptin receptor (receptor)
chain: MAVDVNINIKCETDGYLTKMTCRWSANPNALLLGSSLQLRYHRSKIYCSNFPSTPPESEVKECHFQRNHSYECTFQPVFLLSGYTMWIELKHSLGTLESSPTCVVPADVVKPLPPSNIKAEITRNDGLLNVSWTNPVFTNDDLKFQIRYAVNREELTWELYEVLSVPTRSAVIEVQLCVEYIVQIRCRALDGLGYWSNWSRSAYAAVKD
notes: also called CLBD
B3: chicken leptin (ligand, UniProt O42164 19-163, looked up)
chain: VPCQIFQDDTKTLIKTIVTRINDISHTSVSAKQRVTGLDFIPGLHPILSLSKMDQTLAVYQQVLTSLPSQNVLQIANDLENLRDLLHLLAFSKSCSLPQTSGLQKPESLDGVLEASLYSTEVVALSRLQGSLQDILQQLDISPEC
notes: also called chLeptin; ChLeptin
B4: recombinant human leptin receptor leptin-binding domain (LBD), amino acids 428-635 of the human leptin receptor (receptor)
chain: MAIDVNINISCETDGYLTKMTCRWSTSTIQSLAESTLQLRYHRSSLYCSDIPSIHPISEPKDCYLQSDGFYECIFQPIFLLSGYTMWIRINHSLGSLDSPPTCVLPDSVVKPLPPSSVKAEITINIGLLKISWEKPVFPENNLQFQIRYGLSGKEVQWKMYEVYDAKSKSVSLPVPDLCAVYAVQVRCKRLDGLGYWSNWSNPAYTVVMD
notes: also called hLBD; human LBD

Experiments:
[1] = biological target: T1, long form of human leptin receptor, …; test: competition of unlabeled leptin with 125I-human leptin for binding to homogenate of BAF/3 cells transfected with the long form of human leptin receptor
Procedure: (§1) The specific binding (%) in experiments performed with human, ovine, and chicken leptins and their mutants were, respectively, 7.3% in A, and 8.1% in B, and the nonspecific binding was respectively, 5.4 and 14%. All values for specific binding were normalized, and the solid lines and the IC₅₀ values were calculated using the PRIZMA curve-fitting program (Author, A. (1994) GraphPad Prism™, Version 2.0, GraphPad Software Inc., San Diego, Calif.).
(§2) Binding Assays—Radiolabeled human ¹²⁵I-leptin served as a ligand, and other (human, ovine, and chicken) nonlabeled leptins served as competitors. The experiments were conducted using either recombinant LBD or homogenates of BAF/3 cells stably transfected with the long form of hLEP receptor. In the latter case, the cells were cultured in Dulbecco's modified Eagle's medium supplemented with 5% fetal calf serum in the presence of IL-3 to minimize leptin-receptor down-regulation until a concentration of 10⁶ cells/ml was reached. Then the cells were spun and stored at −70° C. […] Then supernatant was carefully aspirated, and the precipitates were counted in a Kontron ?-counter.

[2] = biological target: B4; test: competition of unlabeled leptin with 125I-human leptin for binding to soluble recombinant LBD, precipitation of the complex and counting
Procedure: as §1, §2

[3] = biological target: B1; test: gel filtration of hormone:chLBD mixtures at various molar ratios, retention times printed over the peaks
[4] = biological target: T2, recombinant human leptin (human, UniProt P41159 22-167); test: SPR
T2 construct: mature; also called hLEP; hLeptin

[5] = biological target: B3; test: SPR
[6] = biological target: T2, recombinant human leptin; test: Scatchard plot (bound/free against bound) of the binding of 125I-hLep to chLBD, inset
[7] = biological target: B4; test: SPR
[8] = biological target: long form of human leptin receptor, stably transfected in BAF/3 cells (cell homogenate) (human) (UniProt P48357); test: competition with 125I-hLEP, homogenate of BAF/3 cells with long-form human leptin receptor
[9] = biological target: B2; test: inhibition of binding of 125I-hLep to chLBD by unlabeled leptin; the curve only falls to about 66 % at the highest concentration shown (about 10^-4.2 M), the printed value lies beyond the range
Procedure: Binding Assays—Radiolabeled human ¹²⁵I-leptin served as a ligand, and other (human, ovine, and chicken) nonlabeled leptins served as competitors. The experiments were conducted using either recombinant LBD or homogenates of BAF/3 cells stably transfected with the long form of hLEP receptor. In the latter case, the cells were cultured in Dulbecco's modified Eagle's medium supplemented with 5% fetal calf serum in the presence of IL-3 to minimize leptin-receptor down-regulation until a concentration of 10⁶ cells/ml was reached. Then the cells were spun and stored at −70° C. […] Each tube contained 150 or 200 μl of reaction buffer in the case of the assay with the cells or recombinant LBD, respectively, 100 μl of ¹²⁵I-hLEP (100,000 cpm for cells or 180,000 cpm for binding domain assays), and 100 μl of different leptin solutions (providing 0-5000 ng/tube) in the reaction buffer, and the reaction was started by addition of 150 μl of cell homogenate or 100 μl of LBD (20 ng). The tubes were incubated for 24 h at room temperature. Then the leptin receptor complex was precipitated by adding 250 μl of 1% (w/v) bovine immunoglobulin and 500 μl of 20% (w/v) polyethylene glycol. After thorough mixing, the tubes were incubated for 20 min at 4° C. and centrifuged at 12,000×g for 15 min at 4° C. Then supernatant was carefully aspirated, and the precipitates were counted in a Kontron ?-counter. […]

[10] = biological target: B1; test: cell-based or functional assay
[11] = biological target: T2, recombinant human leptin; test: cell-based or functional assay
[12] = biological target: B3; test: cell-based or functional assay
[13] = biological target: B1; test: cell-based or functional assay; remark: listed apart in the source
[14] = biological target: T2, recombinant human leptin; test: cell-based or functional assay; remark: listed apart in the source
[15] = biological target: T2, recombinant human leptin; test: SPR, hLEP immobilized on CM5, LBD in flow
Procedure: Kinetic Measurements of LBD-hLEP Interactions—All experiments were performed at 25° C. using surface plasmon resonance (SPR) methodology. The kinetics and equilibrium constants for the interaction between hLEP and LBD were determined using the Biacore 3000 system (Uppsala, Sweden). hLEP was immobilized in a flow cell of a research-grade CM5 sensor chip using amine-coupling chemistry (Lofas, S. et al (1990) J. Chem. Soc. Chem. Commun. 21, 1526-1528). The immobilization steps were carried out at a flow rate of 10 μl/min in HBS-EP buffer. The surface was activated for 7 min with a mixture of N-hydroxysuccinimide (0.05 M) and N-ethyl-N′(3-dimethylaminopropyl)-carbodiimide hydrochloride (0.2 M). hLEP was injected at a concentration of 50 μg/ml in 10 mM acetate, pH 3.5, until the desired level (1000 resonance units) was achieved. Ethanolamine (1 M, pH 8.5) was injected for 7 min to block the remaining activated groups. A control surface was prepared by activating the carboxyl groups and then blocking the activated groups by ethanolamine as described. […] Regeneration of the surface after each interaction was performed by using a 10-μl pulse of 10 mM glycine buffer, pH 2. […]
SPR Determination of the Interaction between hLEP and LBD—The interactions of hLEP and LBD were analyzed by comparison with a theoretical model using Chi-square analysis.

T2 sequence (P41159 22-167): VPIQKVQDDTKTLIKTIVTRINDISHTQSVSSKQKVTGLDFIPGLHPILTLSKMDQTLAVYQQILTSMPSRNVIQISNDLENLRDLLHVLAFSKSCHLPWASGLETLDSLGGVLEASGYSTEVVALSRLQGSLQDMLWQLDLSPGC

Binder: B1
IC50 (read off the curve) [1]: ~0.6 nM
IC50 (read off the curve) [2]: ~8 nM

Binder: B2
binding result [3]: binds
Kd [4]: 78.5 nM
koff [4]: 0.0143 s⁻¹
kon [4]: 183000 M⁻¹ s⁻¹
Kd [5]: 1300 nM
koff [5]: 0.076 s⁻¹
kon [5]: 58300 M⁻¹ s⁻¹
Kd [6]: 3.9 nM

Binder: B3
Kd [7]: 380 nM
koff [7]: 0.0052 s⁻¹
kon [7]: 13500 M⁻¹ s⁻¹
fold lower capacity to displace than hLEP [8]: 20 fold
IC50 [9]: 88000 nM

Binder: B4
molar excess of LBD required to achieve 50% inhibition of leptin-stimulated proliferation of BAF/3 cells with the long form of human leptin receptor [10]: 200 molar excess
molar excess of LBD required to achieve 50% inhibition of leptin-stimulated proliferation of BAF/3 cells with the long form of human leptin receptor [11]: 200 molar excess
molar excess of LBD required to achieve 50% inhibition of leptin-stimulated proliferation of BAF/3 cells with the long form of human leptin receptor [12]: 600 molar excess
IC50 (read off the curve) [13]: ~20 nM
IC50 (read off the curve) [14]: ~20 nM
complex half-life [15]: 6.24 min
